B1: PLEKHG7, Q6ZR37 (peptide)
chain: FTLPAESSEI
B2: CLDN9, O95484 (peptide)
chain: ASGLDKRDYV

biological target: T1, PDZRN3_1, Q9UPQ7; assay: holdup assay; set-up: key: below the threshold = too weak to quantify, mostly under pKd 3.1 to 4; settings: plain residues with an end cap or a label only (N-terminal biotin on a linker: ado-ado)
T1 sequence (Q9UPQ7 244-349, limits assumed, looked up): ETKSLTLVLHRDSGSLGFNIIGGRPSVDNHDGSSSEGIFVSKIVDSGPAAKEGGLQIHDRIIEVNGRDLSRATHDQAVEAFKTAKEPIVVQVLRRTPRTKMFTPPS

| Binder | pKd |
| --- | --- |
| B1 | below the threshold |
| B2 | below the threshold |

biological target: T2, DFNB31_1, Q9P202; assay: holdup assay; set-up: key: below the threshold = too weak to quantify, mostly under pKd 3.1 to 4; settings: plain residues with an end cap or a label only (N-terminal biotin on a linker: ado-ado)
T2 sequence (Q9P202 135-233, limits assumed, looked up): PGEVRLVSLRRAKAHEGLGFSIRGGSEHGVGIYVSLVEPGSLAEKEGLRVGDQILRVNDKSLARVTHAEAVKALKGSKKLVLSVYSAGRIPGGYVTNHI

| Binder | pKd |
| --- | --- |
| B1 | 4.39 |
| B2 | below the threshold |

biological target: T3, PTPN13_1, Q12923; assay: holdup assay; set-up: key: below the threshold = too weak to quantify, mostly under pKd 3.1 to 4; settings: plain residues with an end cap or a label only (N-terminal biotin on a linker: ado-ado)
T3 sequence (Q12923 1088-1188, limits assumed, looked up): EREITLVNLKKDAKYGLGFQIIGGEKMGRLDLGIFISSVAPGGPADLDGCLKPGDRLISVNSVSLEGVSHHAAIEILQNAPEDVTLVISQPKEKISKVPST

| Binder | pKd |
| --- | --- |
| B1 | below the threshold |
| B2 | below the threshold |

biological target: Inadl_3, Q8NI35; assay: holdup assay; set-up: key: below the threshold = too weak to quantify, mostly under pKd 3.1 to 4; settings: plain residues with an end cap or a label only (N-terminal biotin on a linker: ado-ado)
Sequence (Q8NI35 359-469): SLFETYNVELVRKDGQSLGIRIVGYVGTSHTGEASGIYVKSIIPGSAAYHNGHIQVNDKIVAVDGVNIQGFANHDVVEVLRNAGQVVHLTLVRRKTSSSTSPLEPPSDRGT

| Binder | pKd |
| --- | --- |
| B1 | below the threshold |
| B2 | below the threshold |

biological target: T4, TX1BP3, O14907; assay: holdup assay; set-up: key: below the threshold = too weak to quantify, mostly under pKd 3.1 to 4; settings: plain residues with an end cap or a label only (N-terminal biotin on a linker: ado-ado)
T4 sequence (O14907 10-122, limits assumed, looked up): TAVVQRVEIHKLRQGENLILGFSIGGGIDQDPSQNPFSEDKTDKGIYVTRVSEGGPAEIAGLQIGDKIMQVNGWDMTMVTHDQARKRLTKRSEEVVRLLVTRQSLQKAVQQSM

| Binder | pKd |
| --- | --- |
| B1 | below the threshold |
| B2 | 3.92 |

biological target: CASK, O14936; assay: holdup assay; set-up: key: below the threshold = too weak to quantify, mostly under pKd 3.1 to 4; settings: plain residues with an end cap or a label only (N-terminal biotin on a linker: ado-ado)
Sequence (O14936 487-570): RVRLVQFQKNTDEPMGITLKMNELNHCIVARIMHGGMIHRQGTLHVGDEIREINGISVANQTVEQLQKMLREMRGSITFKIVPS

| Binder | pKd |
| --- | --- |
| B1 | below the threshold |
| B2 | below the threshold |

biological target: T5, TIAM2, Q8IVF5; assay: holdup assay; set-up: key: below the threshold = too weak to quantify, mostly under pKd 3.1 to 4; settings: plain residues with an end cap or a label only (N-terminal biotin on a linker: ado-ado)
T5 sequence (Q8IVF5 885-986, limits assumed, looked up): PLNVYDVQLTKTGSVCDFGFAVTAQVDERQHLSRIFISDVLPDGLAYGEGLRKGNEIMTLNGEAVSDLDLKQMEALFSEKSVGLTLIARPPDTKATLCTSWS

| Binder | pKd |
| --- | --- |
| B1 | 4.04 |
| B2 | below the threshold |

biological target: T6, SYNJ2BP, P57105; assay: holdup assay; set-up: key: below the threshold = too weak to quantify, mostly under pKd 3.1 to 4; settings: plain residues with an end cap or a label only (N-terminal biotin on a linker: ado-ado)
T6 sequence (P57105 8-110, limits assumed, looked up): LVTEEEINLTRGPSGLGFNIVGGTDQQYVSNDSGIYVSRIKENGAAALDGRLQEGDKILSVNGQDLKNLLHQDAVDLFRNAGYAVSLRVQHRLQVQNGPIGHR

| Binder | pKd |
| --- | --- |
| B1 | 3.98 |
| B2 | below the threshold |

biological target: T7, MPP2, Q14168; assay: holdup assay; set-up: key: below the threshold = too weak to quantify, mostly under pKd 3.1 to 4; settings: plain residues with an end cap or a label only (N-terminal biotin on a linker: ado-ado)
T7 sequence (Q14168 180-250, limits assumed, looked up): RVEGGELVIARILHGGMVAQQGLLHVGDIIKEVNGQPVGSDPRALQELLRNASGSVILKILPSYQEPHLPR

| Binder | pKd |
| --- | --- |
| B1 | below the threshold |
| B2 | below the threshold |

biological target: FRMPD4, Q14CM0; assay: holdup assay; set-up: key: below the threshold = too weak to quantify, mostly under pKd 3.1 to 4; settings: plain residues with an end cap or a label only (N-terminal biotin on a linker: ado-ado)
Sequence (Q14CM0 67-160): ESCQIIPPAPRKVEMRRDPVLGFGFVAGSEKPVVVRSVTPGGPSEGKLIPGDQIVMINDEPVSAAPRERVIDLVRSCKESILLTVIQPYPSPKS

| Binder | pKd |
| --- | --- |
| B1 | below the threshold |
| B2 | below the threshold |

biological target: T8, LRRC7, Q96NW7; assay: holdup assay; set-up: key: below the threshold = too weak to quantify, mostly under pKd 3.1 to 4; settings: plain residues with an end cap or a label only (N-terminal biotin on a linker: ado-ado)
T8 sequence (Q96NW7 1440-1537, limits assumed, looked up): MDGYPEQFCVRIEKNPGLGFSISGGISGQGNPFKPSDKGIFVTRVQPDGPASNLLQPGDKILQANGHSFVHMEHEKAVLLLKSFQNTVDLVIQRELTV

| Binder | pKd |
| --- | --- |
| B1 | below the threshold |
| B2 | below the threshold |

biological target: MAGI1_2, Q96QZ7; assay: holdup assay; set-up: key: below the threshold = too weak to quantify, mostly under pKd 3.1 to 4; settings: plain residues with an end cap or a label only (N-terminal biotin on a linker: ado-ado)
Sequence (Q96QZ7 456-580): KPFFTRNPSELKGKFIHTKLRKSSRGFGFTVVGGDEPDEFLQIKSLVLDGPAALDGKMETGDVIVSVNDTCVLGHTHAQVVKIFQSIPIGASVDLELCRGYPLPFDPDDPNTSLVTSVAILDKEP

| Binder | pKd |
| --- | --- |
| B1 | below the threshold |
| B2 | below the threshold |

biological target: T9, GRIP1_2, Q9Y3R0; assay: holdup assay; set-up: key: below the threshold = too weak to quantify, mostly under pKd 3.1 to 4; settings: plain residues with an end cap or a label only (N-terminal biotin on a linker: ado-ado)
T9 sequence (Q9Y3R0 145-248, limits assumed, looked up): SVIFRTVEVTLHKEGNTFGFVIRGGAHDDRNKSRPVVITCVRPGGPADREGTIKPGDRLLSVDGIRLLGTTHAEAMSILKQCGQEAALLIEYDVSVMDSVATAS

| Binder | pKd |
| --- | --- |
| B1 | below the threshold |
| B2 | below the threshold |

biological target: SNX27, Q96L92; assay: holdup assay; set-up: key: below the threshold = too weak to quantify, mostly under pKd 3.1 to 4; settings: plain residues with an end cap or a label only (N-terminal biotin on a linker: ado-ado)

| Binder | pKd |
| --- | --- |
| B1 | below the threshold |
| B2 | 3.62 |

biological target: T10, DFNB31_2, Q9P202; assay: holdup assay; set-up: key: below the threshold = too weak to quantify, mostly under pKd 3.1 to 4; settings: plain residues with an end cap or a label only (N-terminal biotin on a linker: ado-ado)
T10 sequence (Q9P202 274-371, limits assumed, looked up): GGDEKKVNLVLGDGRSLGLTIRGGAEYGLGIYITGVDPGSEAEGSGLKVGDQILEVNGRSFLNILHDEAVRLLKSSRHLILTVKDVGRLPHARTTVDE

| Binder | pKd |
| --- | --- |
| B1 | below the threshold |
| B2 | below the threshold |

biological target: T11, SNTG1, Q9NSN8; assay: holdup assay; set-up: key: below the threshold = too weak to quantify, mostly under pKd 3.1 to 4; settings: plain residues with an end cap or a label only (N-terminal biotin on a linker: ado-ado)
T11 sequence (Q9NSN8 52-150, limits assumed, looked up): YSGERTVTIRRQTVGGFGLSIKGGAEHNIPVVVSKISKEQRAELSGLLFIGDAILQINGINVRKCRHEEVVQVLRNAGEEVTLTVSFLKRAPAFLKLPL

| Binder | pKd |
| --- | --- |
| B1 | below the threshold |
| B2 | below the threshold |

biological target: GRIP2_6, Q9C0E4; assay: holdup assay; set-up: key: below the threshold = too weak to quantify, mostly under pKd 3.1 to 4; settings: plain residues with an end cap or a label only (N-terminal biotin on a linker: ado-ado)
Sequence (Q9C0E4 648-740): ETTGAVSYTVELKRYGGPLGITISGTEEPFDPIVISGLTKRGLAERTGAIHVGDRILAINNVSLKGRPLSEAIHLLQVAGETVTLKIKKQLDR

| Binder | pKd |
| --- | --- |
| B1 | below the threshold |
| B2 | below the threshold |

biological target: T12, PCLO, Q9Y6V0; assay: holdup assay; set-up: key: below the threshold = too weak to quantify, mostly under pKd 3.1 to 4; settings: plain residues with an end cap or a label only (N-terminal biotin on a linker: ado-ado)
T12 sequence (Q9Y6V0 4491-4600, limits assumed, looked up): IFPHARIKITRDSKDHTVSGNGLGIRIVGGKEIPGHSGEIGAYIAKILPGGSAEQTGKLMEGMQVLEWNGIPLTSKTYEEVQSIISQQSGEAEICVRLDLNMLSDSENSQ

| Binder | pKd |
| --- | --- |
| B1 | below the threshold |
| B2 | below the threshold |

biological target: T13, FRMPD1, Q5SYB0; assay: holdup assay; set-up: key: below the threshold = too weak to quantify, mostly under pKd 3.1 to 4; settings: plain residues with an end cap or a label only (N-terminal biotin on a linker: ado-ado)
T13 sequence (Q5SYB0 52-145, limits assumed, looked up): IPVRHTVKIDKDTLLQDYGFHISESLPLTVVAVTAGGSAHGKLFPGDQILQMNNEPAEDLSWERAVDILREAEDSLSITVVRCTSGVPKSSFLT

| Binder | pKd |
| --- | --- |
| B1 | below the threshold |
| B2 | below the threshold |

biological target: DLG5_1, Q8TDM6; assay: holdup assay; set-up: key: below the threshold = too weak to quantify, mostly under pKd 3.1 to 4; settings: plain residues with an end cap or a label only (N-terminal biotin on a linker: ado-ado)
Sequence (Q8TDM6 617-713): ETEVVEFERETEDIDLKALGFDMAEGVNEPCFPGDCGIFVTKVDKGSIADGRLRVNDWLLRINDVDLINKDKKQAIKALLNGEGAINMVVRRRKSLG

| Binder | pKd |
| --- | --- |
| B1 | below the threshold |
| B2 | below the threshold |

biological target: T14, PDZD2_2, O15018; assay: holdup assay; set-up: key: below the threshold = too weak to quantify, mostly under pKd 3.1 to 4; settings: plain residues with an end cap or a label only (N-terminal biotin on a linker: ado-ado)
T14 sequence (O15018 329-429, limits assumed, looked up): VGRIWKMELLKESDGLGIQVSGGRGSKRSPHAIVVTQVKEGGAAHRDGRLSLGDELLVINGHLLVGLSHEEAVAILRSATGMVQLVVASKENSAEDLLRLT

| Binder | pKd |
| --- | --- |
| B1 | 5.12 |
| B2 | 5.04 |

biological target: GIPC2, Q8TF65; assay: holdup assay; set-up: key: below the threshold = too weak to quantify, mostly under pKd 3.1 to 4; settings: plain residues with an end cap or a label only (N-terminal biotin on a linker: ado-ado)
Sequence (Q8TF65 112-203): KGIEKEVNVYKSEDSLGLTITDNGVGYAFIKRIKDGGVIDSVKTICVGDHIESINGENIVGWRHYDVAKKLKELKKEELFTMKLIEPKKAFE

| Binder | pKd |
| --- | --- |
| B1 | below the threshold |
| B2 | below the threshold |

biological target: FRMPD2_3, Q68DX3; assay: holdup assay; set-up: key: below the threshold = too weak to quantify, mostly under pKd 3.1 to 4; settings: plain residues with an end cap or a label only (N-terminal biotin on a linker: ado-ado)
Sequence (Q68DX3 1073-1166): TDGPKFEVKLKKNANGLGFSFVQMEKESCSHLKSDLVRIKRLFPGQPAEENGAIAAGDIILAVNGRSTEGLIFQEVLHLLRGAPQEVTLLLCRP

| Binder | pKd |
| --- | --- |
| B1 | below the threshold |
| B2 | below the threshold |

Source: paper PMC9482650, “Quantitative fragmentomics allow affinity mapping of interactomes” (Nature Communications, 2022)
